# B1: AM18 (antibody, V domains shown)
# VH: QVQFMQSGAEVKKPGASVKVSCKASGDTFSNFAVHWVRQAPGQRPEWMGWVNAGDSNLKYSQRFQGRLIITRDTFASTVYLDLSSLTSKDTAVYYCAGGNFGGNSATFDYWGQGTLVTVSS
# VL: EIVLTQSPGTLSLSPGERATLSCRASQSVSDNYLAWYQQKPGQAPRLLIYGASHKSTGIPDRFSGSGSGTDFTLTISRLEPEDFAVYYCQQYGGSPLTFGGGTKVEIKR
# Biological target: T1, HPeV1 VP1 (recombinant capsid protein, his-tag) (human parechovirus 1 (Harris), UniProt Q66578 543-773)
# T1 sequence: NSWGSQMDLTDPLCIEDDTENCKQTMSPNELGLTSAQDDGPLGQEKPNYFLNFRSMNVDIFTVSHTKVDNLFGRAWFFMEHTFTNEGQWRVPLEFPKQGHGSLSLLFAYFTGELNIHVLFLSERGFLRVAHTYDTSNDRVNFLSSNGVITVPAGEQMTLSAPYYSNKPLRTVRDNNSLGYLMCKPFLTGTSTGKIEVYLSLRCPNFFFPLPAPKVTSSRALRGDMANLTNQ
binder,measurement,value
B1,Kd,0.0115 nM
same,koff,2.3e-06 s⁻¹
same,kon,208000 M⁻¹ s⁻¹

# Source: patent publication WO2015037992A1 (dated 2015)
